Reference: patent US20250136692A1 (GEORGIAMUNE, published 2025)

Molecular target: PD-1 on human CD4+ T cells (human, UniProt Q15116 25-288)
Assay: cell-based or functional assay

Sequence of PD-1 on human CD4+ T cells (Q15116 25-288 limits assumed): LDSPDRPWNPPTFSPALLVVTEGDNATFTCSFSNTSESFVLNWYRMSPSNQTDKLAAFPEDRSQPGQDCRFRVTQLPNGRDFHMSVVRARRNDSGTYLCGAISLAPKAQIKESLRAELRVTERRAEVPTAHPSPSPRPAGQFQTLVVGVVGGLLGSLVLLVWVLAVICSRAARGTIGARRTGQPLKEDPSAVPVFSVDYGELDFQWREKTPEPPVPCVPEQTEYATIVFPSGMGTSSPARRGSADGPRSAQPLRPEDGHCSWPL

Row | Binder | IFN-γ levels in the supernatants of human CD4 T cells (ELISA), 4G9-2 at 25 µg/mL for 72 hours [fold] | ITK/SHP2 ratio (normalized to levels of PD-1), Protein A immunoprecipitation and Western blot [fold]
1 | 4G9-2 (antibody, human IgG1, kappa, V domains shown) VH: QVQLVQSGAEVKKPGASVKVSCKASGYTFTTYGINWVRQATGQGLEWMGWINTYSGVPGYAQKFQGRVTMTLNTSISTAYMELSSLRSEDTAVYYCARGSGGFAYWGQGTLVTVSS VL: not shown | 3 | 
2 | 4G9-12 (antibody, V domains shown) VH: QVQLVQSGAEVKKPGASVKVSCKASGYTFTTYGINWVRQATGQGLEWMGWINTYSGVPGYAQKFQGRVTMTLDTSISTAYMELSSLRSEDTAVYYCARGSGGFAYWGQGTLVTVSS VL: not shown |  | 3
